Test results from the Human Domainome abundance scans (Beltran et al. 2025).
± gives the uncertainty stated by the source.

B1: Formin-binding protein 4, residues 200 to 261; numbered along this chain, Q8N3X1 (parent)
chain: SGWQYDTQCSLAGVGIEMGDWQEVWDENTGCYYYWNTQTNEVTWELPQYLATQVQGLQHYQP

Variants of: B1
Test: abundance fitness (aPCA) (normalised: wild type 0, dead -1); higher = more abundant; growth selection in yeast, the domain comes from the species named
Conditions: Homo sapiens

Variant	abundance fitness
E23R	-0.59 ± 0.12
E23H	-0.443 ± 0.36
E23M	-0.964 ± 0.18
E23Y	-0.58 ± 0.21
E23V	-1.07 ± 0.17
E23L	-0.637 ± 0.081
E23C	-0.862 ± 0.18
E23A	-0.817 ± 0.13
E23W	-1.06 ± 0.28
E23Q	-0.431 ± 0.12
E23P	-0.697 ± 0.14
E23I	-0.759 ± 0.22
E23T	-0.582 ± 0.12
E23F	-0.511 ± 0.15
E23S	-0.682 ± 0.094
W21F	-0.313 ± 0.11
W21Y	-0.066 ± 0.21
W21A	-0.948 ± 0.15
W21N	-1.1 ± 0.3
W21L	-0.847 ± 0.082
W21C	-0.804 ± 0.17
W21G	-0.791 ± 0.093
W21K	-1.05 ± 0.26
W21H	-0.297 ± 0.29

Variant	abundance fitness
W21I	-0.859 ± 0.22
W21E	-1.03 ± 0.22
W21M	-0.498 ± 0.1
W21T	-0.792 ± 0.16
W21D	-0.716 ± 0.25
W21V	-0.82 ± 0.1
W21R	-0.811 ± 0.081
W21P	-0.812 ± 0.17
E27F	-0.319 ± 0.12
E27Q	-0.168 ± 0.12
E27S	-0.187 ± 0.074
E27A	0.043 ± 0.064
E27G	-0.066 ± 0.063
E27W	-0.601 ± 0.11
E27R	-0.112 ± 0.058
E27K	0.076 ± 0.1
E27I	-0.174 ± 0.13
E27N	-0.127 ± 0.14
E27Y	-0.288 ± 0.17
E27C	-0.213 ± 0.1
E27M	-0.381 ± 0.092
E27T	-0.199 ± 0.094
E27V	-0.373 ± 0.066
E27H	0.516 ± 0.11

Variant	abundance fitness
E27L	-0.429 ± 0.071
E27P	-0.349 ± 0.12
E27D	0.101 ± 0.095
D20L	-0.383 ± 0.058
D20T	-0.339 ± 0.079
D20A	-0.3 ± 0.068
D20Y	-0.217 ± 0.11
D20G	-0.254 ± 0.077
D20C	-0.162 ± 0.13
D20V	-0.237 ± 0.06
D20F	0.15 ± 0.098
D20S	-0.295 ± 0.071
D20E	-0.162 ± 0.064
D20R	-0.022 ± 0.068
D20K	-0.287 ± 0.11
D20N	-0.264 ± 0.15
D20P	-0.252 ± 0.082
D20I	-0.579 ± 0.16
D20H	-0.043 ± 0.13
D20W	-0.143 ± 0.084
D20Q	-0.287 ± 0.091
D20M	-0.29 ± 0.095
W25T	-0.381 ± 0.11
W25V	-0.358 ± 0.09

Variant	abundance fitness
W25G	-0.557 ± 0.076
W25P	-0.376 ± 0.14
W25L	-0.119 ± 0.071
W25Y	-0.209 ± 0.17
W25F	-0.142 ± 0.12
W25D	-0.252 ± 0.19
W25E	-0.414 ± 0.1
W25N	-0.853 ± 0.23
W25M	-0.129 ± 0.11
W25R	-0.287 ± 0.075
W25H	-0.256 ± 0.23
W25I	-0.251 ± 0.24
W25C	-0.263 ± 0.15
W25S	-0.294 ± 0.083
W25K	-0.014 ± 0.098
W25A	-0.207 ± 0.088
V24T	-0.036 ± 0.11
V24A	-0.409 ± 0.11
V24Y	-0.145 ± 0.13
V24G	-0.269 ± 0.075
V24D	-0.215 ± 0.14
V24W	-0.437 ± 0.096
V24M	-0.361 ± 0.14
V24E	-0.217 ± 0.1

Variant	abundance fitness
V24L	-0.074 ± 0.07
V24F	-0.168 ± 0.14
V24I	-0.399 ± 0.18
V24H	-0.163 ± 0.13
V24N	-0.257 ± 0.15
V24Q	0.097 ± 0.096
V24P	-1.05 ± 0.32
V24R	-0.145 ± 0.059
S10Y	-0.623 ± 0.17
S10R	-0.328 ± 0.062
S10T	-0.112 ± 0.078
S10P	-0.216 ± 0.081
S10V	-0.701 ± 0.071
S10Q	-0.498 ± 0.11
S10W	-1.03 ± 0.17
G13I	-0.471 ± 0.14
G13D	-0.087 ± 0.094
G13A	-0.237 ± 0.09
G13M	-0.158 ± 0.1
G13R	-0.194 ± 0.057
G13P	-0.082 ± 0.079
G13F	-0.129 ± 0.084
G13W	-0.666 ± 0.097
G13L	-0.187 ± 0.055

Variant	abundance fitness
G13S	-0.171 ± 0.065
G13C	-0.103 ± 0.098
G13K	-0.107 ± 0.094
G13H	-0.158 ± 0.14
G13Y	-0.578 ± 0.14
G13Q	-0.197 ± 0.11
G13E	-0.161 ± 0.094
G13V	-0.424 ± 0.069
G13T	-0.009 ± 0.077
G13N	-0.468 ± 0.15
E17H	-0.105 ± 0.11
E17V	-0.237 ± 0.073
E17Y	-0.838 ± 0.15
E17R	-0.103 ± 0.051
E17I	-0.373 ± 0.12
E17F	-0.263 ± 0.094
E17M	-0.414 ± 0.12
E17W	-0.403 ± 0.078
E17L	-0.577 ± 0.073
E17Q	-0.038 ± 0.096
E17S	-0.151 ± 0.06
E17A	-0.183 ± 0.081
E17K	0.063 ± 0.099
E17G	-0.346 ± 0.061

Variant	abundance fitness
E17P	-0.58 ± 0.1
E17N	-0.34 ± 0.1
E17D	0.138 ± 0.089
E17C	-0.338 ± 0.077
G15L	-0.638 ± 0.085
G15C	-0.182 ± 0.11
G15M	-0.321 ± 0.12
G15P	-0.03 ± 0.088
G15A	0.273 ± 0.057
G15H	-0.536 ± 0.16
G15N	-0.21 ± 0.15
G15T	-0.099 ± 0.094
G15E	-0.178 ± 0.088
G15F	-0.583 ± 0.14
G15I	-0.67 ± 0.18
G15R	-0.071 ± 0.071
G15D	0.132 ± 0.1
G15S	-0.11 ± 0.087
G15V	-0.481 ± 0.075
G15K	-0.073 ± 0.11
G15Y	-0.661 ± 0.18
G15Q	0.1 ± 0.11
G15W	-0.727 ± 0.16
